Experimental findings from patent US20180371091A1 (JOUNCE THERAPEUTICS, published 2018) are described below.

For experiment [1], the target named is T1, monovalent, heterodimeric human ICOS-Fc (human).
T1 construct: Make-up of the heterodimer is not described; also called Monomeric hICOS; monomeric form of human ICOS; not shown: The human IgG1 Fc fused to ICOS, and the partner Fc chain of the heterodimer
T1 chain: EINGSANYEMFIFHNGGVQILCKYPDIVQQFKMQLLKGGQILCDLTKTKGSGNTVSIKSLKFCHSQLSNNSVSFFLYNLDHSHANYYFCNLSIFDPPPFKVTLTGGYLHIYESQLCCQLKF
In words: BLI (Octet RED96), IgG vs monovalent heterodimeric ICOS-Fc. As to the method: (§1) Affinity measurements were conducted using Bio-Layer Interferometry (BLI) technology (ForteBio Octet® RED96). The monovalent affinities were generated with IgG versions of the antibodies with monovalent, heterodimeric forms of the ICOS receptor. The avid affinities were generated using full-length IgGs against homodimeric forms of the ICOS receptor.

For experiment [2], the target named is T2, mouse CTLA-4 Fc fusion (dimeric) (mouse, UniProt P09793 36-162).
T2 construct: not shown: Fc part not described
In words: binding to dimeric Fc fusions of CD28 family members. Here is the method:
(§2) To further assess the specificity of the anti-ICOS antibodies, the antibodies were screened for binding to additional members of the CD28 protein family (CD28, BTLA, PD-1 and CTLA-4). […] Specifically, binding to Fc fusions (of CD28, BTLA, PD-1 and CTLA-4) in dimeric forms was evaluated, and no binding was observed. For a subset of the CD28 family members, mouse or human protein was over-expressed on the surface of HEK293 and CHOK1 cells. No binding of antibody above background relative to untransduced parental cells was observed.

For experiment [3], the target named is T3, human BTLA Fc fusion (dimeric) (human, UniProt Q7Z6A9 31-157).
T3 construct: not shown: Fc part not described
T3 sequence (looked up): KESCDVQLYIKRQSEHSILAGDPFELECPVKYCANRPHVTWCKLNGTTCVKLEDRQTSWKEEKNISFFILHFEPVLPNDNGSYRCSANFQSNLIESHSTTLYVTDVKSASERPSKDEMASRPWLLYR
The experiment is described as above. As to the method:
as §2

In experiment [4] the target is T4, human CD28 Fc fusion (dimeric) (human, UniProt P10747 19-152).
T4 construct: not shown: Fc part not described
The experiment is described as above. As to the method:
as §2

Experiment [5] deals with T5, mouse PD-1 Fc fusion (dimeric) (mouse, UniProt Q02242 25-167).
T5 construct: not shown: Fc part not described
T5 sequence (looked up): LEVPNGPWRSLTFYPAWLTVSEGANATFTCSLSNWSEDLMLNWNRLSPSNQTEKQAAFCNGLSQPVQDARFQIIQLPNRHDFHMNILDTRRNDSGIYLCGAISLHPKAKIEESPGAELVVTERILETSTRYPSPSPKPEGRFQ
Described as above. As to the method:
as §2

The target in experiment [6] is T6, human PD-1 Fc fusion (dimeric) (human, UniProt Q15116 25-167).
T6 construct: not shown: Fc part not described
The description is as above. Here is the method:
as §2

In experiment [7] the target is T7, mouse BTLA Fc fusion (dimeric) (mouse, UniProt Q7TSA3 30-183).
T7 construct: not shown: Fc part not described
T7 sequence (looked up): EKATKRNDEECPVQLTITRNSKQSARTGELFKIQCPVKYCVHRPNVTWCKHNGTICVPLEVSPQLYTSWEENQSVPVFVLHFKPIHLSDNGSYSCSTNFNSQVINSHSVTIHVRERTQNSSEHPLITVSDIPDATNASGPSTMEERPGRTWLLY
Described as above. Here is the method:
as §2

The target of experiment [8] is T8, mouse CD28 Fc fusion (dimeric) (mouse, UniProt P31041 20-150).
T8 construct: not shown: Fc part not described
T8 sequence (looked up): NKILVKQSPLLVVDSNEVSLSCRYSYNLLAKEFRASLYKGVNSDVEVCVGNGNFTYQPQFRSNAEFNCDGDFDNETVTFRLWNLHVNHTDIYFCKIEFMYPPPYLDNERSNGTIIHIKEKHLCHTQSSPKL
The experiment is described as above. Here is the method: as §2

For experiment [9], the target named is T9, human CTLA-4 Fc fusion (dimeric) (human, UniProt P16410 37-162).
T9 construct: not shown: Fc part not described
T9 sequence (looked up): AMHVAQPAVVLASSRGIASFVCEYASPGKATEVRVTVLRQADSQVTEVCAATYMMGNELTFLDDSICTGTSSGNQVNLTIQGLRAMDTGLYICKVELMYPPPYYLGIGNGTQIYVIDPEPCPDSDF
Described as above. As to the method: as §2

The target in experiment [10] is T10, mouse ICOS-hFc (homodimeric, bivalent) (mouse; human, UniProt Q9WVS0 21-142).
T10 construct: also called mICOS-hFc; mouse ICOS-Fc; not shown: human IgG1 Fc (IgG1 backbone)
T10 sequence: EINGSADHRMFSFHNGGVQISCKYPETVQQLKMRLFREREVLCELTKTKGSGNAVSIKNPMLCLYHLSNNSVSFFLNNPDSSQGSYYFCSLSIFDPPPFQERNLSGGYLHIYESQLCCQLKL
In words: BLI. Here is the method:
(§3) Cross-reactivity measurements were conducted using BLI technology with antibody panels being screened for binding to human, mouse, and cynomolgus ICOS-Fc fusions (homodimeric, bivalent forms).

Experiment [11] addresses T11, human ICOS-hFc (homodimeric, bivalent) (human, UniProt Q9Y6W8 21-141).
T11 construct: also called hICOS-Fc; hICOS-hFc; not shown: human IgG1 Fc (IgG1 backbone)
T11 sequence: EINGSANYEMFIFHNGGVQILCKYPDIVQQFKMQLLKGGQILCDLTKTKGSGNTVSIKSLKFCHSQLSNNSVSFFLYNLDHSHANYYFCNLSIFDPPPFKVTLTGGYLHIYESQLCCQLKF
In words: BLI, bivalent binding to homodimeric ICOS-Fc. As to the method: as §3

Experiment [12] deals with T12, cynomolgus ICOS-Fc (homodimeric, bivalent) (cynomolgus monkey, UniProt Q9Y6W8 21-140 (human entry)).
T12 construct: also called cynoICOS-Fc; cyno ICOS-Fc; not shown: human IgG1 Fc (IgG1 backbone)
T12 chain: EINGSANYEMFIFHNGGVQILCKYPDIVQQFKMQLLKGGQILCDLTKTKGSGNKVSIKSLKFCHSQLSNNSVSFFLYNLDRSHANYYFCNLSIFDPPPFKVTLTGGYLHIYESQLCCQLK
Put plainly: BLI, bivalent binding to homodimeric ICOS-Fc. Here is the method: as §3

Experiment [13] concerns the target T11, human ICOS-hFc (homodimeric, bivalent). In words: BLI (Octet RED96), full-length IgG vs homodimeric ICOS-Fc (avid). Here is the method: as §1
In experiment [14] the target is T13, mouse ICOS (full length, on cells) (mouse, UniProt Q9WVS0 21-200).
T13 construct: also called CHO-mICOS; mouse ICOS+ CHO cells
T13 sequence: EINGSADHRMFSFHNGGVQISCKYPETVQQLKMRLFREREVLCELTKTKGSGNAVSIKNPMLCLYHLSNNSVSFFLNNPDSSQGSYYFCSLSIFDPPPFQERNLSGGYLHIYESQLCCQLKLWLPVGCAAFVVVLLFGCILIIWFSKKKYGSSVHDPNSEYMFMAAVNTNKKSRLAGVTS
Put plainly: flow cytometry on ICOS+ CHO cells. From the text: To assess specificity, binding to human ICOS+ CHO cells and mouse ICOS+ CHO cells was individually analyzed by flow cytometry. As a control to screen out pan-reactive antibodies, staining on CHO cells lacking ICOS receptor expression was also examined. All of the selected antibodies bound to human and mouse ICOS+ CHO cells, and not to CHO cells lacking ICOS expression.

T6 sequence (Q15116 25-167): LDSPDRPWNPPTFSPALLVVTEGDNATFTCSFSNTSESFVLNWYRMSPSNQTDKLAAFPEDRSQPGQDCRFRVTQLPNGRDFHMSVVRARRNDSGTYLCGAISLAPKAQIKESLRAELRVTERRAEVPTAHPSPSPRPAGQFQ
T4 sequence (P10747 19-152): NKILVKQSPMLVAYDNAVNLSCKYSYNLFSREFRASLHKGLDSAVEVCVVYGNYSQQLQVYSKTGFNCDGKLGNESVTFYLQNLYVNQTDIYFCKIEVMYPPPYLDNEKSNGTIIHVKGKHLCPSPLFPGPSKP

B1: 7F12 (antibody, V domains shown)
VH: EVQLVESGGGLVKPGGSLTLSCAASGFTFSDYWMDWVRQGPGKGLEWVGNIDEDGSTTYYAPFVKGRFTISRDNAKKTLYLQMNSVKSEDTATYYCTRWGRYAFDSWGQGTLVTVSS
VL: DIVMTQSPSSLAVSPGDKVTINCKSSQSLLSGNYNYLAWYQQKTGQAPKLLIFYASTRHTGVPDRFMGSGSGTDFSLTINSFQTEDLGDYYCQHHYSTPPTFGPGTKLEIK
notes: Armenian hamster monoclonal tested as IgG; also called hamster anti-ICOS 7F12
With B1, the Kd in experiment [1] is 13.2 nM; in [11], 34.2 pM; in experiment [12] it was below 1 pM; in [13] it was 0.0342 nM. In addition, the koff in experiment [1] was 0.00175 s⁻¹; in experiment [11] it was 2.3e-05 s⁻¹; in [12], below 1e-07 s⁻¹; in [13], 2.3e-05 s⁻¹. Moreover, the on-rate (kon) in experiment [1] amounted to 133000 M⁻¹ s⁻¹; in [11], 674000 M⁻¹ s⁻¹; in experiment [12], 585000 M⁻¹ s⁻¹; in experiment [13], 674000 M⁻¹ s⁻¹. For the same molecule, the binding result in [2], in experiment [3], in [4], in [5], in experiment [6] and in experiment [7] was “no binding” in each case. Moreover, the binding result was “no binding” in [8], “no binding” in [9], “binds” in experiment [10] and “binds” in experiment [14].

B2: 37A10 (antibody, V domains shown)
VH: EVQLVESGGGLVKPGGSLKLSCAASGFTFSDYWMDWVRQAPGKGLEWVGNIDEDGSITEYSPFVKGRFTISRDNVKNTLYLQMNSVKSEDTATYYCTRWGRFGFDSWGQGTLVTVSS
VL: DIVMTQSPSSLAVSAGDRVTINCKSSQSLLSGSFNYLTWYQQKTGQAPKLLIFYASTRHTGVPDRFMGSGSGTDFTLTINSFQTEDLGDYYCHHHYNAPPTFGPGTKLELR
notes: Armenian hamster monoclonal tested as IgG; also called hamster anti-ICOS 37A10
Turning to B2, the Kd in experiment [1] is 3.18 nM; in experiment [11], below 1 pM; in [12], below 1 pM; in experiment [13] it was 0.0342 nM. Further, the off-rate (koff) is 0.000479 s⁻¹ in experiment [1], below 1e-07 s⁻¹ in [11], below 1e-07 s⁻¹ in experiment [12] and 2.3e-05 s⁻¹ in experiment [13]. For the same molecule, the kon in experiment [1] was 151000 M⁻¹ s⁻¹; in experiment [11] it was 625000 M⁻¹ s⁻¹; in experiment [12] it was 712000 M⁻¹ s⁻¹; in [13] it was 674000 M⁻¹ s⁻¹. Besides, the binding result in experiment [2], in experiment [3], in experiment [4], in experiment [5], in experiment [6] and in experiment [7] was “no binding” each time. In addition, the binding result in [8] is given as “no binding”; in [9] it was “no binding”; in [10] it was “binds”; in experiment [14], “binds”.

B3: 16G10 (antibody, V domains shown)
VH: EVQLVESGGGLVKPGGSLKLSCAASGFTFSDYWMDWVRQAPGKGLEWVGNIDHDGNIINFAPSVKGRFTISRDNAKNTLYLQMNSVKSEDTATYYCARWGHYAFDSWGQGTLVTVSS
VL: DIVMTQSPSSLAVSAGDKVTINCKSSQSLLSSGYNYLIWYQQKTGQAPKLLIFYASTRHTGVPDRFIGSGSGTDFTLTITSFQTEDLGDYYCQHHYSSPPTFGPGTKLEIK
notes: Armenian hamster monoclonal tested as IgG; also called hamster anti-ICOS 16G10
Consider B3, for which the Kd in experiment [1] was 4.37 nM; in experiment [11], below 1 pM; in [12] it was below 1 pM; in experiment [13] it was below 0.001 nM. Besides, the koff in [1] is 0.000712 s⁻¹; in experiment [11], below 1e-07 s⁻¹; in experiment [12] it was below 1e-07 s⁻¹; in [13] it was below 1e-07 s⁻¹. Besides, the association rate constant (kon) was found to be 163000 M⁻¹ s⁻¹ in experiment [1], 626000 M⁻¹ s⁻¹ in experiment [11], 647000 M⁻¹ s⁻¹ in experiment [12] and 1.01e+06 M⁻¹ s⁻¹ in experiment [13]. Moreover, the binding result in experiment [2], in [3], in [4], in experiment [5], in [6] and in [7] was “no binding” throughout. Also, the binding result is reported as “no binding” in experiment [8], “no binding” in [9], “binds” in experiment [10] and “binds” in [14].

B4: 36E10 (antibody, V domains shown)
VH: EVQLVESGGGLVKPGGSLKLSCAASGFTFSDYWMDWVRQAPGKGLEWVGNIDEDGSITEYSPFVKGRFTISRDNVKNILYLQMNSVKSEDTATYYCTRWGRFAFDSWGQGTLVTVSS
VL: DIVMTQSPSSLAVSPGDRVTINCKSSQSLLSGSFHYLTWYQQKTGQAPKLLIFYASTRHTGVPDRFMGSGSGTDFTLTINSFQTEDLGDYYCHHHYNAPPTFGPGTKLELR
notes: Armenian hamster monoclonal tested as IgG; also called hamster anti-ICOS 36E10
With B4, the Kd in experiment [1] was 1.59 nM; in [11], below 1 pM; in [12] it was below 1 pM; in [13], below 0.001 nM. For the same molecule, the koff in experiment [1] was 0.000228 s⁻¹; in experiment [11], below 1e-07 s⁻¹; in experiment [12], below 1e-07 s⁻¹; in experiment [13] it was below 1e-07 s⁻¹. Besides, the binding result in experiment [2], in experiment [3], in experiment [4], in [5], in experiment [6] and in [7] was “no binding” each time. For the same molecule, the binding result in experiment [8] is on record as “no binding”; in experiment [9] it was “no binding”; in experiment [10], “binds”; in experiment [14] it was “binds”. In addition, the kon in experiment [11] was 617000 M⁻¹ s⁻¹; in experiment [12], 697000 M⁻¹ s⁻¹; in [13], 626000 M⁻¹ s⁻¹.
